The values below come from patent US7470669B2, “Isolated polypeptide comprising a leptin fragment” (Serono Genetics Institute, S.A., priority 1999, dated 2008).

A short description of data set [1]: Plasma leptin concentration after subcutaneous leptin injection in ob/ob mice. It is filed as in vivo, mouse. As to conditions: 50 ng s.c., at 2 h. From the text:
Na ^125I was purchased from Amersham-Pharmacia (Piscataway, N.J.; Les Ulis, France). Oleic acid, bovine serum albumin (A2153) (BSA), were obtained from Sigma (St. Louis, Mo.; St. Quentin Fallavier, France). Sodium heparin was purchased from Choay laboratories (Gentilly, France). Fugene was purchased from Roche Boehringer Mannheim (Indianapolis, Ind.), and Superfect from Qiagen (Valencia, Calif.). Zeocin was obtained from Invitrogen (Carlsbad, Calif.). Suramin was a gift from Bayer Pharmaceuticals (Puteaux, France). Enzymatic kits for the determination of TG and FFA were obtained from Roche-Boehringer Mannheim (Meylan, France) and WAKO (Richmond, Va.; Unipath, Dardilly, France), respectively. Dulbecco's modified Eagle's medium (DMEM), trypsin, penicillin-streptomycin, glutamine, and fetal bovine serum (FBS) were purchased from Life Technologies, Inc (Grand Island, N.Y.; Eragny, France). RIA kits for plasma leptin measurements were obtained from Linco (St. Louis, Mo.). […]
This injection caused a transient increase in plasma leptin concentrations up to 3.25±0.03 ng/mL at 2 h; baseline values were recorded 4 h after injection. […]

The next data set deals with T1, Ob-R (Mus musculus, UniProt P48356).
T1 sequence (P48356 22-894 isoform P48356-2 limits assumed): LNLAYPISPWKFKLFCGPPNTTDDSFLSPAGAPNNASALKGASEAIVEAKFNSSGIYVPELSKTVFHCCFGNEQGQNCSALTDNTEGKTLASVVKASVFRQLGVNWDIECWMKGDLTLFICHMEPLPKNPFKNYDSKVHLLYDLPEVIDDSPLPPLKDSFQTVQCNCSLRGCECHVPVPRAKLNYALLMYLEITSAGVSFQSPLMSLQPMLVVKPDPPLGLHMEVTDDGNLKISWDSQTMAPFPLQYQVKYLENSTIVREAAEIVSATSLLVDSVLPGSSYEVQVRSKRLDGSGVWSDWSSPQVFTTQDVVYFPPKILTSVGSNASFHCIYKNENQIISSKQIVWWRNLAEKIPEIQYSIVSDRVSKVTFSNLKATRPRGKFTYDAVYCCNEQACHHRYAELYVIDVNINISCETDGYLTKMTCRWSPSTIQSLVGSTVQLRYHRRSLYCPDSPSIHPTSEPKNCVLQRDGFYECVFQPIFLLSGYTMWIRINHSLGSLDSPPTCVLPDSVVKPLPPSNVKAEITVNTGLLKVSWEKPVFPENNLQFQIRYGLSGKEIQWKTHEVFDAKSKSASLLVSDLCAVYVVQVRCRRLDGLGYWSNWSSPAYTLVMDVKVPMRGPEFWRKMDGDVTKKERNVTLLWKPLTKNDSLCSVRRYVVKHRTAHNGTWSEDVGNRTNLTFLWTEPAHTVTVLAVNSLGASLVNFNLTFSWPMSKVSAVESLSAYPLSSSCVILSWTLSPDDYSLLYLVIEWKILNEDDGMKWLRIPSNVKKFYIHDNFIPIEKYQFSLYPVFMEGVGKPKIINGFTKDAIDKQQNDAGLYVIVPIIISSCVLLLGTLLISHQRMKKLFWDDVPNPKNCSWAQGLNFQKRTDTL
As to conditions: Tartaglia et al, 1995; cited from earlier work.

Another data set deals with LSR mRNA. Briefly: Northern analysis of LSR mRNA in PLC cells preincubated 24 h with leptin. It is filed as cell-based, human. As to conditions: preincubated 24 h with 200-400 ng/mL leptin. Here is the method: FIGS. 35A and 35B show graphs of LSR activity and mRNA expression measured in PLC cells preincubated 24 h with leptin. In FIG. 35A, PLC monolayers were incubated 24 h at 37° C. with (o) or without (n) 200 ng/mL human recombinant leptin. After washing with PBS, cells were incubated 30 min at 37° C. with increasing concentrations of human leptin, followed by a 2 h incubation at 37° C. with 0.8 mM oleate and 20 μg/mL ^125I-LDL. Cells were washed, and the amount of oleate-induced ^125I-LDL binding was measured as described previously. Results are shown as the mean of triplicate determinations. In FIG. 35B, PLC monolayers were incubated 24 h at 37° C. with 0, 200, or 400 ng/mL human recombinant leptin. After washing with PBS, the cells were harvested. Total RNA was prepared from the cell pellets, and Northerns were performed to detect LSR mRNA, using GAPDH probe as loading control as described previously. Northern blots were scanned on the Phosphorimager (Molecular Dynamics, Sunnyvale, Calif.). Densitometric analysis of the images was performed using the software ImageQuant. Results are shown as the amount of LSR signal relative to that of GAPDH (mean±SD, n=3/condition). […]

In data set [1], “leptin: plasma protein of 16 kDa produced by adipocytes; recombinant human or mouse leptin, species depends on the experiment” displayed a plasma leptin concentrations of 3.25 ± 0.03 ng/mL. Further, in the data set with Ob-R, the dissociation constant (Kd) was 0.7 nM. For the same substance, the “decrease of hepatocyte LSR mRNA relative to GAPDH” value in the data set on LSR mRNA is recorded as 25-35%.

One may read the Kd as the equilibrium constant for the complex coming apart.
